Experimental data as given in PMC9843451.

Experiments:
Test in all cases: purified protein
Format in all cases: biochemical, Rhodopseudomonas palustris
purified protein [1] = substrate: CCCCCCC1CCC(=O)O1; conditions: 2.5 mM bicine pH 8.3, 150 mM NaCl, 1 mM CaCl2, DMSO, error is 95% CI
purified protein [2] = substrate: O=C1CCCCO1; conditions: 2.5 mM bicine pH 8.3, 150 mM NaCl, 1 mM CaCl2, DMSO, error is 95% CI
purified protein [3] = substrate: O=C1CCc2ccccc2O1; conditions: 50 mM Tris pH 8, 150 mM NaCl, 1 mM CaCl2, DMSO, error is 95% CI

B1: Rpa3624 (Rhodopseudomonas palustris CGA009) (protein)
chain: MSNVRVLATDLAFPEGPVVMPDGSVVLVEIRAQQLTRVWPDGRKEVVAKVPGGPNGAALGPDGKMYICNNGGFGWFPSRGTMMPGAPAPHEYIGGSIQRVDLQSGEVETLFDKCGEHPLKGPNDLVFDKHGGLWFTDLGKRRARDMDVGAAYYIKPGMTEITEQVFGTLPLNGIGLSPDEATMYAAETPTGRLWAFDLSGPGEVKPRDVIYRGEKGKPICGLGGYQMFDSLAVEASGNVCVATLVSGCISVIAPDGTLVEQVPTGDRVTTNIAFGGPDLKTAYITLSGKGELIAMDWSRPGLPLNFLNK
- Km (purified protein [1]): 2.36 (1.15–4.82) mM
- kcat (purified protein [1]): 135 s⁻¹
- kcat/Km (purified protein [1]): 57200 M⁻¹ s⁻¹
- Km (purified protein [2]): 74.0 (40.7–133) mM
- kcat (purified protein [2]): 754 s⁻¹
- kcat/Km (purified protein [2]): 10200 M⁻¹ s⁻¹
- Km (purified protein [3]): 1.85 (0.976–3.77) mM
- kcat (purified protein [3]): 308 s⁻¹
- kcat/Km (purified protein [3]): 166000 M⁻¹ s⁻¹
